The record followed here is article PMC2635961.

For this assay, the target named is each recombinant exocyst subunit. The experiment in a line: pull-down; MBP or MBP-tagged proteins immobilised on amylose resin; equimolar purified Sec10(145–827) (1 µM) added; 10 mM HEPES pH 7, 100 mM NaCl, 0.1% NP-40, 1 mM DTT; 1 h at 4°C; three washes; Western blot with α-His5 and α-MBP. Background: Immunoblotting shows a protein as a band on a membrane.

B1: Sec10(145–827) (domain or fragment)
chain: GDKLETAIKKKQNYIQSVELIRRYNDFYSMGKSDIVEQLRLSKNWKLNLKSVKLMKNLLILSSKLETSSIPKTINTKLVIEKYSEMMENELLENFNSAYRENNFTKLNEIAIILNNFNGGVNVIQSFINQHDYFIDTKQIDLENEFENVFIKNVKFKEQLIDFENHSVIIETSMQNLINDVETVIKNESKIVKRVFEEKATHVIQLFIQRVFAQKIEPRFEVLLRNSLSISNLAYVRILHGLFTLFGKFTKSLIDYFQLLEIDDSNQILSTTLEQCFADLFSHYLYDRSKYFGIEKRSLEAILVDMTSKFTVNYDKEINKRVLLDKYKEKLSTNVDAFMHSPRGNTHSRQDSTSRSKLSQFNSFLKTHLDKDHLSLNRTNTLSDSFNNSSSSTQYDVANNSSSLVNSSFTASDIDNSPNSPANYSLNDVDSMLKCVVESTARVMELIPNKAHLYILEILKIMFLGIVDSYMEIALEVAYWKICKVDINKTAGVVNLNFLKFISMSTEILDLLSISIKSIFLPLLNNSPEIKAQIIEMTNSQIQKMEILINIILQETITVISTKFSAILCKQKKKDFVPKSQELLDQDTLPAIEIVNILNLIFEQSSKFLKGKNLQTFLTLIGEELYGLLLSHYSHFQVNSIGGVVVTKDIIGYQTAIEDWGVASLIDKFATLRELANLFTVQP
For B1, the percent bound is 10 to 20%.
